From publication PMC7840993, “Fluorescent thermal shift-based method for detection of NF-κB binding to double-stranded DNA” (Scientific Reports, 2021) come the findings set out here.

As a reminder, the IC50 is the midpoint of a concentration-inhibition curve.

Data set [1] deals with T1, p50 1-367 (complete RHD) (human) (UniProt P19838).
T1 sequence: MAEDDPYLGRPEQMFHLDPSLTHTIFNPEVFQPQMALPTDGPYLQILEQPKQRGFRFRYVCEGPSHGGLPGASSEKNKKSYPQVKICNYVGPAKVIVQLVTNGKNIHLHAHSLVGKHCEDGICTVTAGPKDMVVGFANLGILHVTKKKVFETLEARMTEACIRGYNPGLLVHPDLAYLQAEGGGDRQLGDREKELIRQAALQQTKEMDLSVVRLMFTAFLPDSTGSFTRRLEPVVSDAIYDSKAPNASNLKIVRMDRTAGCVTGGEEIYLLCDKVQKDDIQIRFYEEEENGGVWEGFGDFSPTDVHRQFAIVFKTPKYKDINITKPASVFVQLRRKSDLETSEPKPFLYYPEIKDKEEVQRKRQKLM
As to the kind of experiment: fluorescence thermal shift (SYPRO Orange). Particulars: apparent KD, two equivalent κB sites considered; 1.5 µM protein; ΔTmax 2.462 °C; Thermal shift: 50 mM Tris-HCl pH 7.5, 225 mM NaCl, 2.25% glycerol, 25 min at 4 °C, then 25-95 °C melt; EMSA: 10 mM Tris-HCl pH 7.5, 0.5 mM EDTA, 65 mM KCl, 5 mM.

The target of data set [2] is p65/RelA 1-306 (complete RHD) (human) (UniProt Q04206). Description: fluorescence thermal shift (SYPRO Orange). Particulars: apparent KD, two equivalent κB sites considered; 1.5 µM protein; ΔTmax 1.678 °C; Thermal shift: 50 mM Tris-HCl pH 7.5, 225 mM NaCl, 2.25% glycerol, 25 min at 4 °C, then 25-95 °C melt; EMSA: 10 mM Tris-HCl pH 7.5, 0.5 mM EDTA, 65 mM KCl, 5 mM. (Mobility shift assays separate free from complexed probe on a gel.)

The next data set concerns the target p65/RelA (Homo sapiens, UniProt Q04206). Description: inhibition of […]κB dsDNA binding by fluorescence thermal shift assay (also lowers Tm of the protein without DNA); EMSA.
A further data set has as its target T2, p50 (Homo sapiens, UniProt P19838).
T2 construct: gene NFKB1; p50_1-367 (aa 1–367, complete RHD), HIS-tagged
T2 sequence (P19838 1-367): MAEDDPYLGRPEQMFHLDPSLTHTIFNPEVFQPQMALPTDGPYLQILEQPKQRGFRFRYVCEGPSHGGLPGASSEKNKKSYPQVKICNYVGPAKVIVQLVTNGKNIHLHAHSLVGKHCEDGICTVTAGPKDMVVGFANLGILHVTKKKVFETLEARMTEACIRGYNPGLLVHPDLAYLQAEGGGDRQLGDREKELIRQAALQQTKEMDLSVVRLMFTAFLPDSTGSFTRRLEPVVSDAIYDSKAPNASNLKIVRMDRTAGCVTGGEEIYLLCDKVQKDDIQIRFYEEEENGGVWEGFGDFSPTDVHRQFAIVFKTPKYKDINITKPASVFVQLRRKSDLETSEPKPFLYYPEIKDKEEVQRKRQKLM
As to the kind of experiment: inhibition of dsDNA binding by fluorescence thermal shift assay.

For another data set, the target named is p50 1-367 (complete RHD) (human, UniProt P19838 1-367). As to the kind of experiment: fluorescence thermal shift (SYPRO Orange); 10 µM DNA, 1.5 µM protein; Tm raised about 2-3 °C (1κB and 2κB range); Thermal shift: 50 mM Tris-HCl pH 7.5, 225 mM NaCl, 2.25% glycerol, 25 min at 4 °C, then 25-95 °C melt; EMSA: 10 mM Tris-HCl pH 7.5, 0.5 mM EDTA, 65 mM KCl, 5 mM MgCl2, 1 mM DTT, 100 µg/mL BSA, 10% glycerol, 50 ng/µl poly(dI-dC), 45 min at 30 °C. The note with it: protein: recombinant; tags: His, N-terminal Myc; chain copies: 2; label: none; only one strand given.

Data set [3] concerns the target p65/RelA 1-306 (complete RHD) (human, UniProt Q04206 1-306). As to the kind of experiment: fluorescence thermal shift (SYPRO Orange); 10 µM DNA, 1.5 µM protein; Tm raised about 1-1.5 °C (1κB and 2κB range); Thermal shift: 50 mM Tris-HCl pH 7.5, 225 mM NaCl, 2.25% glycerol, 25 min at 4 °C, then 25-95 °C melt; EMSA: 10 mM Tris-HCl pH 7.5, 0.5 mM EDTA, 65 mM KCl, 5 mM MgCl2, 1 mM DTT, 100 µg/mL BSA, 10% glycerol, 50 ng/µl poly(dI-dC), 45 min at 30 °C. Particulars: protein: recombinant; chain copies: 2; label: none; only one strand given.

Sequence of p65/RelA 1-306 (complete RHD) (human) (Q04206 1-306): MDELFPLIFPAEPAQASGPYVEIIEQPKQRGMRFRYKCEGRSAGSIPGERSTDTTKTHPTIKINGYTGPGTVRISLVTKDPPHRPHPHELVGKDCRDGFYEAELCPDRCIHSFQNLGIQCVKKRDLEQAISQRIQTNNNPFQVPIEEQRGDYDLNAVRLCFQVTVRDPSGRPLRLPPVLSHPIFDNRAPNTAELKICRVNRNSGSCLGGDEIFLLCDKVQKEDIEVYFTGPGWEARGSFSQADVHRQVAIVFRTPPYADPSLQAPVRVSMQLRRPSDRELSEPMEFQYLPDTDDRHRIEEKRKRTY
Sequence of p65/RelA 1-306 (complete RHD) (Q04206 1-306): as above
Sequence of p65/RelA (Q04206 1-306): as above

“AATTCGGGACTTTCCCGTCGGGACTTTCC (double strand) [2κB dsDNA]”: the Kd in data set [1] turned out to be 0.794 µM; in data set [2], 2.23 µM.

On to `CC1=C(CO)C(=O)O[C@@H]([C@@H](C)[C@H]2CC[C@H]3[C@@H]4C[C@H]5O[C@]56[C@@H](O)C=CC(=O)[C@]6(C)[C@H]4CC[C@]23C)C1` [WFA, withaferin A], for which the IC50 was about 16.4 µM at p65/RelA and about 19.1 µM on p50.

B1: 1κB dsDNA (dsDNA)
DNA 1: AGTTGAGGGGACTTTCCCAGGC
DNA 2: GCCTGGGAAAGTCCCCTCAACT
As to B1, the binding result (in the data set with p50 1-367 (complete RHD); in data set [3]) was “binds” in each case.
